B1: Programmed cell death 6-interacting protein (Homo sapiens), Q8WUM4 (parent)
chain: MATFISVQLKKTSEVDLAKPLVKFIQQTYPSGGEEQAQYCRAAEELSKLRRAAVGRPLDKHEGALETLLRYYDQICSIEPKFPFSENQICLTFTWKDAFDKGSLFGGSVKLALASLGYEKSCVLFNCAALASQIAAEQNLDNDEGLKIAAKHYQFASGAFLHIKETVLSALSREPTVDISPDTVGTLSLIMLAQAQEVFFLKATRDKMKDAIIAKLANQAADYFGDAFKQCQYKDTLPKEVFPVLAAKHCIMQANAEYHQSILAKQQKKFGEEIARLQHAAELIKTVASRYDEYVNVKDFSDKINRALAAAKKDNDFIYHDRVPDLKDLDPIGKATLVKSTPVNVPISQKFTDLFEKMVPVSVQQSLAAYNQRKADLVNRSIAQMREATTLANGVLASLNLPAAIEDVSGDTVPQSILTKSRSVIEQGGIQTVDQLIKELPELLQRNREILDESLRLLDEEEATDNDLRAKFKERWQRTPSNELYKPLRAEGTNFRTVLDKAVQADGQVKECYQSHRDTIVLLCKPEPELNAAIPSANPAKTMQGSEVVNVLKSLLSNLDEVKKEREGLENDLKSVNFDMTSKFLTALAQDGVINEEALSVTELDRVYGGLTTKVQESLKKQEGLLKNIQVSHQEFSKMKQSNNEANLREEVLKNLATAYDNFVELVANLKEGTKFYNELTEILVRFQNKCSDIVFARKTERDELLKDLQQSIAREPSAPSIPTPAYQSSPAGGHAPTPPTPAPRTMPPTKPQPPARPPPPVLPANRAPSATAPSPVGAGTAAPAPSQTPGSAPPPQAQGPPYPTYPGYPGYCQMPMPMGYNPYAYGQYNMPYPPVYHQSPGQAPYPGPQQPSYPFPQPPQQSYYPQQ
partner: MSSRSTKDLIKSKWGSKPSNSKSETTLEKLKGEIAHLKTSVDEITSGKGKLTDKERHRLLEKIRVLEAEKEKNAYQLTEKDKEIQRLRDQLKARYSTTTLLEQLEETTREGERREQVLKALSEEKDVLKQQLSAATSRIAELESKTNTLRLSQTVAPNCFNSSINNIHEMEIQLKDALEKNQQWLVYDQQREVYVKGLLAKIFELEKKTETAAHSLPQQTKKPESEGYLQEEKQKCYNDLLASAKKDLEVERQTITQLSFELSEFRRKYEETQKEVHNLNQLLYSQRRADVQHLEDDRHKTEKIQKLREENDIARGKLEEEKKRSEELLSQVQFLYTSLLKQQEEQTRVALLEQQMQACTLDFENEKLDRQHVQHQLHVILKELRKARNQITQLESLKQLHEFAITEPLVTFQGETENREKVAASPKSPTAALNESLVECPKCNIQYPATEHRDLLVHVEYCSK
B2: G-patch domain and KOW motifs-containing protein (Homo sapiens), Q92917 (parent)
chain: MADSKEGVLPLTAASTAPISFGFTRTSARRRLADSGDGAGPSPEEKDFLKTVEGRELQSVKPQEAPKELVIPLIQNGHRRQPPARPPGPSTDTGALADGVVSQAVKELIAESKKSLEERENAGVDPTLAIPMIQKGCTPSGEGADSEPRAETVPEEANYEAVPVEAYGLAMLRGMGWKPGEGIGRTFNQVVKPRVNSLRPKGLGLGANLTEAQALTPTGPSRMPRPDEEQEKDKEDQPQGLVPGGAVVVLSGPHRGLYGKVEGLDPDNVRAMVRLAVGSRVVTVSEYYLRPVSQQEFDKNTLDLRQQNGTASSRKTLWNQELYIQQDNSERKRKHLPDRQDGPAAKSEKAAPRSQHWLHRDLRVRFVDNMYKGGQYYNTKMIIEDVLSPDTCVCRTDEGRVLEGLREDMLETLVPKAEGDRVMVVLGPQTGRVGHLLSRDRARSRALVQLPRENQVVELHYDAICQYMGPSDTDDD
partner: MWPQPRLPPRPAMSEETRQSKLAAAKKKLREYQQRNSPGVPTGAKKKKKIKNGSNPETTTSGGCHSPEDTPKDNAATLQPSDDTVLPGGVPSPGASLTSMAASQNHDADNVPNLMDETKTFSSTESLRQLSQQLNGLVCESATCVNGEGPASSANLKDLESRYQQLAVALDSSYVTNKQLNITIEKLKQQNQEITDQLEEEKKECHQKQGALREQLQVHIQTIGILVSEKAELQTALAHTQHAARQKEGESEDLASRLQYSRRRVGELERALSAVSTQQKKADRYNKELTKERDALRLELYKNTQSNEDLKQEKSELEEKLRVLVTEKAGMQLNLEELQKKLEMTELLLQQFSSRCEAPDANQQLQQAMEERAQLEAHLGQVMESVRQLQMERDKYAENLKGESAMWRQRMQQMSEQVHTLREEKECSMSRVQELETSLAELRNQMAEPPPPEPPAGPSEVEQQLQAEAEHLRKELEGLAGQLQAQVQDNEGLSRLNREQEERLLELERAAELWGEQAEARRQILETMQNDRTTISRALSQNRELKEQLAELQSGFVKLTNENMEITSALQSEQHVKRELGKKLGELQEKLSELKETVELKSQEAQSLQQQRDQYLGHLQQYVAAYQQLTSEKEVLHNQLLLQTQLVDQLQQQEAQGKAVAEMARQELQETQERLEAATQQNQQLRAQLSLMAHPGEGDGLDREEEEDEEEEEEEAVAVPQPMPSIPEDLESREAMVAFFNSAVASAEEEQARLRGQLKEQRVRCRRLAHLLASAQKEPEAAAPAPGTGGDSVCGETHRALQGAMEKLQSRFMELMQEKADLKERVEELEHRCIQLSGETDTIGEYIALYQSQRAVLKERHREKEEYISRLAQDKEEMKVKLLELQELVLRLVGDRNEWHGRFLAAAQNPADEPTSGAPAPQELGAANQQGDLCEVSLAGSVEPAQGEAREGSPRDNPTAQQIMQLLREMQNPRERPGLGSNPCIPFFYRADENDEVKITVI
B3: Cyclic AMP-dependent transcription factor ATF-2 (Homo sapiens), P15336 (parent)
chain: MKFKLHVNSARQYKDLWNMSDDKPFLCTAPGCGQRFTNEDHLAVHKHKHEMTLKFGPARNDSVIVADQTPTPTRFLKNCEEVGLFNELASPFENEFKKASEDDIKKMPLDLSPLATPIIRSKIEEPSVVETTHQDSPLPHPESTTSDEKEVPLAQTAQPTSAIVRPASLQVPNVLLTSSDSSVIIQQAVPSPTSSTVITQAPSSNRPIVPVPGPFPLLLHLPNGQTMPVAIPASITSSNVHVPAAVPLVRPVTMVPSVPGIPGPSSPQPVQSEAKMRLKAALTQQHPPVTNGDTVKGHGSGLVRTQSEESRPQSLQQPATSTTETPASPAHTTPQTQSTSGRRRRAANEDPDEKRRKFLERNRAAASRCRQKRKVWVQSLEKKAEDLSSLNGQLQSEVTLLRNEVAQLKQLLLAHKDCPVTAMQKKSGYHTADKDDSSEDISVPSSPHTEAIQHSSVSTSNGVSSTSKAEAVATSVLTQMADQSTEPALSQIVMAPSSQSQPSGS

Variants of: B1
Details: with cep55_human CEP55, Q53EZ4

| Variant | effect of a mutation on the interaction |
| --- | --- |
| N550S | with no effect |
| G429S | with no effect |

Variants of: B2
Details: with goga2_human GOLGA2, Q08379

| Variant | effect of a mutation on the interaction |
| --- | --- |
| V393A | with no effect |
| A129T | with no effect |

Variants of: B3
Details: with jun_human JUN

| Variant | effect of a mutation on the interaction |
| --- | --- |
| S456L | with no effect |
